B1: purified His-tagged Ig-like domains of CD147 (CD147ECP-his) (domain or fragment)
chain: AAGTVFTTVEDLGSKILLTCSLNDSATEVTGHRWLKGGVVLKEDALPGQKTEFKVDSDDQWGEYSCVFLPEPMGTANIQLHGPPRVKAVKSSEHINEGETAMLVCKSESVPPVTDWAWYKITDSEDKALMNGSESRFFVSSSQGRSELHIENLNMEADPGQYRCNGTSSKGSDQAIITLRVRSHLAAL
B2: purified C2 domain of CD147 (domain or fragment)
chain: AAGTVFTTVEDLGSKILLTCSLNDSATEVTGHRWLKGGVVLKEDALPGQKTEFKVDSDDQWGEYSCVFLPEPMGTANIQLHG
B3: purified I domain of CD147 (domain or fragment)
chain: PRVKAVKSSEHINEGETAMLVCKSESVPPVTDWAWYKITDSEDKALMNGSESRFFVSSSQGRSELHIENLNMEADPGQYRCNGTSSKGSDQAIIT

Target: purified Annexin A2 (UniProt P07355 1-339)
Assay: SPR

purified Annexin A2, sequence (P07355 whole entry): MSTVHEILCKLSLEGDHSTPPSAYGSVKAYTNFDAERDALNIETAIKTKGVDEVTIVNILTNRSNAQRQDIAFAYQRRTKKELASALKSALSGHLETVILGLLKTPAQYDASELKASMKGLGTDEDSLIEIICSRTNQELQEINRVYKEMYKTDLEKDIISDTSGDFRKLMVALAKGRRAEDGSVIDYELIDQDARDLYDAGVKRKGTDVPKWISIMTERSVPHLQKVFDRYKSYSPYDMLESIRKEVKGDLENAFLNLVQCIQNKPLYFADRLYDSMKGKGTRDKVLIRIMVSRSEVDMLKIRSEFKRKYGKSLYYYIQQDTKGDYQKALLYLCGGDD

Binder | koff
B1 | 1.14 s⁻¹
B2 | 1.14 s⁻¹
B3 | 0.00307 s⁻¹

Source: publication PMC4868709 (2015)
